B1: scFv 11: NS3-inhibiting single-chain antibody, SEQ ID NO:10; MBP fusion SEQ ID NO:24 (protein)
scFv: EVQLQQSGAELVKPGASVKLSCTASGFNIKDYYMHWVKQRPGQGLEYIGRIYPGNGQTDYNGKFKGKATLTADKSSSTAYMQLSSLTSVDSAVYFCARGLFAYWGQGTLVTVSSGGGGSGGGGSGGGGSDVVMTQTPLSLPVSFGDQVSISCRSSQSLANSYGNTYLSWCLHKPGQSPQLLIYGISNRFSGVPDRFSGSGSGTDFTLKISTIKPEDLGMYYCLQGTHQPLTFGAGTKLEIKR
modifications: scFv inhibitor
B2: scFv 10: NS3-inhibiting single-chain antibody, SEQ ID NO:11; MBP fusion SEQ ID NO:25 (protein)
scFv: QVQLQQSGAELMKPGASVKISCKATGYTFSNYWIEWVKQRPGHGLEWIGGILPGSGSTNYNEKFKGKATFTADTSSNTAYLQLSSLTSEDTAVYYCNADGPPGFDYWGQGTTLTVSSGGGGSGGGGSGGGGSDVLMTQTPLTLSVTIGQPASISCKSSQSLLDSDGKTYLNWLLQRPGQSPKRLIYLVSKLDSGVPDRFTGSGSGTDFTLKISRVEAEDLGVYYCFQGSHVPFTFGSGTKLEIKR
modifications: scFv inhibitor
B3: scFv 162: NS3-inhibiting single-chain antibody, SEQ ID NO:5; MBP fusion SEQ ID NO:19 (protein)
scFv: EVQLQQSGAELVRSGASVKLSCTASGFNIKDYYMHWVKQRPEQGLEWIGWIDPANGNTKYDPKFQGKATITADTSSNTAYLQLSSLTSEDTAVYYCARWDWYFDVWGAGTTVTVSSGGGGSGGGGSGGGGSSVLMTQTPLSLPVSLGDQASISCRSSQSIVHSNGNTYLEWYLQKPGQSPKLLIYKVSNRFSGVPDRFSGSGSGTDFTLKISRVEAEDLGVYYCFQGSHVPWTFGGGTKLELKR
modifications: scFv inhibitor
B4: scFv 148: NS3-inhibiting single-chain antibody, SEQ ID NO:7; MBP fusion SEQ ID NO:21 (protein)
scFv: EIQLQQSGAELVKPGASVKLSCTASGFNIKDTFVHWVKQRPEQGLEWIGRIDPANGNTKYDPKFQGKATITAATSSNTAYLQLSSLTSEDTAVYYCATGLDYYAMDYWGQGTSVTVSSGGGGSGGGGSGGGGSDVVMTQTPLSPPVSLGDQASISCRSSQSLVHSNGNTYLHWYLQKPGQSPKLLIYKVSNRFSGVPDRFSGSGSGTDFTLKITRVEAEDLGLYFCSQSTHVPWTFGGGTKLEIKR
modifications: scFv inhibitor
B5: scFv 171: NS3-inhibiting single-chain antibody, SEQ ID NO:6; MBP fusion SEQ ID NO:20 (protein)
scFv: EVQLQQSGAELVRSGASVKLSCTASGFNIKDYYMHWVKQRPEQGLEWIGWIDPENGDTEYAPKFQGKATMTADTSSNTAYLQLSSLTSEDTAVYYCNAWGGSSDYYAMDYWGQGTSVTVSSGGGGSGGGGSGGGGSDVVMTQTPLSLPVSLGDQASISCRSSQSLVHSNGNTYLHWYLQKPGQSPKLLIYKVSNRFSGVPDRFSGSGSGTDFTLKISRVEAEDLGVYYCFQGSHVPWTFGGGTKLEIKR
modifications: scFv inhibitor
B6: scFv 1: NS3-inhibiting single-chain antibody, SEQ ID NO:1; MBP fusion SEQ ID NO:15 (protein)
scFv: EVQLQQSGPELVKPGASVKMSCKASGYTFTDYYIKWVKQSHGKSLEWIGVINPGSGGTNYNEKFKGKATLTADKSSSTAYMQLSSLTSENSAVYFCARRAGTGYYFDYWGQGTTVTVSSGGGGSGGGGSGGGGSDVLMTQTPLSLPVSLGDQASISCRSSQSIVHSNGNTYLEWYLQKPGQSPKLLIYKVSNRFSGVPDRFSGSGSGTDFTLKISRVEAEDLGVYYCFQGSHVPLTFGAGTKLEIKR
modifications: scFv inhibitor

Columns and labels:
MBP-scNS3 [1] = molecular target: T1, MBP-scNS3 (Hepatitis C virus genotype 1b, UniProt P26663); test: In vitro fluorometric assay of NS3 protease catalysis inhibition; type: biochemical, Hepatitis C virus (HCV) genotype Ib; conditions: 100% minus % catalysis of FIG. 3B; 100 nM MBP-scNS3, 5 μM immobilized substrate, 2.4 or 1.2 μM MBP-scFv
T1 construct: made in house
Experimental: (§1) NS3 catalysis inhibition assays. Blue colonies of E. coli TG-I cells carrying pMGT14 and pMALc-NN-scFv that were isolated by the genetic screening were grown in LB medium supplemented with 100 μg/ml ampicillin, 50 μg/ml kanamycin and induced with 0.2% (w/v) arabinose and 0.5 mM IPTG at O.D600nm=0.6 for 4 hr at 30° C. To measure the β-galactosidase activity an ONPG hydrolysis assay (Bach et al., 2001) was carried out. An in vitro fluorometric assay for the measurement of NS3 protease catalysis inhibition by the purified scFvs was carried out essentially as described (Berdichevsky et al., 2003) with the following modifications: the EFGP-NS5A/B-CBD substrate was immobilized onto cellulose prior to its exposure to enzyme and inhibitor. The reactions were carried out in 96 well plates in a volume of 100 μl containing 5 μM immobilized substrate, 100 nM MBP-5cNS3 and 2.4 or 1.2 μM of tested MBP-scFv.

scNS3 = molecular target: T2, scNS3 (Hepatitis C virus genotype 1b, UniProt P26663); test: Competition ELISA with myc-tagged tracer scFvs 171 and 35 on scNS3-coated plates; type: binding, Hepatitis C virus (HCV) genotype Ib; conditions: tracers scFv 171 and 35, myc tag
T2 construct: a single-chain fusion linking the NS4A cofactor peptide to the N-terminus of the NS3 protease; inferred from the IMAC purification; made in house; host or cells: E. coli BL-21 (DE3) carrying pYB-43
Experimental: For competition ELISA the inventors replaced the C-terminal FLAG epitope of the scFvs that were used as tracers with a myc tag. Competing scFvs were added to scNS3-coated plates at varying concentrations and incubated at room temperature for 1 hr before adding the tracer scFvs. Binding of the tracers was monitored using a HRP-conjugated anti myc antibody (Sigma, Israel).

MBP-scNS3 [2] = molecular target: T1, MBP-scNS3; test: ONPG hydrolysis (β-galactosidase) assay in genetic screening bacteria as indicator of NS3 activity; type: cell-based, Hepatitis C virus (HCV) genotype Ib; conditions: E. coli TG-I carrying pMGT14 and pMALc-NN-scFv; taken from FIG. 3A
Experimental: as §1

HCV RNA replicons = test: Inhibition of HCV RNA replicon amplification, SEAP secretion from replicon-bearing Huh7 cells transfected with intrabodies; type: cell-based, HCV genotype Ib strain N; conditions: transiently transfected intrabodies
Experimental: Cells and transfections. HCV genotype Ib strain N subgenomic replicon cell lines were obtained from Stanley Lemon and are described in (Bourne et al., 2005). En5-3 cells are a clonal cell line derived from Huh7 cells by stable transformation with the plasmid pLTR-SEAP. These cells were cultured in DMEM supplemented with 10% fetal calf serum, 2 μg/ml blasticidin (Invitrogen), penicillin, and streptomycin. Following transfection with Ntat2ANeo replicon RNAs, cells supporting replicon amplification were selected and maintained in the above media containing in addition 400 μg/ml G418 (geneticin). Cell lines were passaged once or twice per week. […] The culture medium was replaced every 24 h post transfection and the secreted alkaline phosphatase (SEAP) activity was measured in these fluids as described below, reflecting the daily production of SEAP by the cells.
Alkaline phosphatase assay. […] The luminescent signal was read using a TD-20/20 Luminometer (Turner Designs, Inc.).
For intracellular expression of the anti-NS3 protease single-chain antibodies in the cytoplasm of mammalian cells, the scFvs coding genes were subcloned as Ncol-Notl fragments, form plasmid pMALc-NN-scFv into the pCMV/myc/cyto-MBP vector (Shaki-Loewenstein et al, 2005). […] SEAP activity secreted from the cells was measured over successive 24-h intervals. […]

NS3 = molecular target: T3, NS3 (Hepatitis C virus genotype 1b, UniProt P26663); test: Competitive in vitro fluorometric assay with epitope mimetic peptide; type: biochemical, Hepatitis C virus (HCV); conditions: scFv 200 μg/ml
T3 construct: made in house
Excerpt: In order to confirm the prediction of scFv 35 and 171 shared epitope on NS3, the epitope was reconstituted on basis of the prediction. To that end, a short peptide segment of NS3 that was predicted to comprise the antibodies shared epitope was used to generate an epitope mimetic. […] As negative controls, a peptide 21 amino acids in length denoted peptide 6 (N′-[…]-C, SEQ ID NO: 111) and a peptide eight amino acids in length denoted peptide x (N′-[…]-C, SEQ ID NO: 112) were used. To test whether those peptides have any effect on NS3 catalytic activity a control in vitro assay was performed, in which the peptides and the NS3 enzyme were added alone without the inhibitor antibodies.

Molecule | % inhibition (MBP-scNS3 [1]) [%] | competition with scFvs 171 and 35 for specific binding to scNS3 (scNS3) | β-gal: β-galactosidase units (MBP-scNS3 [2]) | inhibition of SEAP secretion (in words) (HCV RNA replicons) | NS3 catalysis with scFv, without peptide (NS3; no peptide) [%] | NS3 catalysis with scFv in the presence of the epitope mimetic peptide (NS3; peptide mimetic 50 μM) [%] | increase of NS3 catalytic activity on adding the peptide mimetic (NS3; peptide mimetic 50 μM)
B1 | 52 | could compete | 60 β-galactosidase units |  |  |  | 
B2 | 62 | could compete | 48 β-galactosidase units |  |  |  | 
B3 | 62 | apparently did not | 84 β-galactosidase units |  |  |  | 
B4 | 58 |  | 72 β-galactosidase units |  |  |  | 
B5 | 88 | could compete | 67 β-galactosidase units | most potent inhibitors | 60 | 93 | more than 30%
B6 | 46 | could compete | 44 β-galactosidase units |  |  |  | 
